According to US20200000932A1:

Target: bovine submaxillary mucin (BSM) (bovine)
Assay: BSM ELISA on BSM-coated wells, periodate-sensitive signal (periodate-treated wells subtracted)

| EC50 [nM] | Binder |
| --- | --- |
| 4.2 | hSIA101 (antibody, human IgG1, kappa, V domains shown) VH: EVQLVQSGAEVKKPGASVKVSCKASGYTFTDHAIHWVRQAPGQGLEWMGYFSPGNDDIKYNEKFRGRVTMTADKSSSTAYMELRSLRSDDTAVYFCKRSLSTPYWGQGTLVTVSS VL: DIVMTQSPDSLAVSLGERATINCKSSQSLLNRGNHKNYLTWYQQKPGQPPKLLIYWASTRESGVPDRFSGSGSGTDFTLTISSLQAEDVAVYYCQNDYTYPYTFGQGTKVEIKR |
| 1.8 | hSIA103 (antibody, human IgG1, kappa, V domains shown) VH: QVQLVQSGAEVKKPGASVKVSCKASGYTFTDHAIHWVRQAPGQGLEWMGYISPGNGDIKYNEKFKDRVTMTADKSSSTAYMQLRSLRSDDTAVYFCKRSLLALDYWGQGTLVTVSS VL: DIQMTQSPSSLSASVGDRVTITCKASQDVGTNIAWYQQKPGKAPKVLIYSASTRHTGVPSRFSGSGSGTDFTLTISSLQPEDFATYFCQQYSSFPLTFGQGTKVEIKR |
